Laboratory results published in US20250108100A1, “C-TERMINAL FRAGMENT OF APOLIPOPROTEIN E AND APPLICATION THEREOF IN INHIBITING y-SECRETASE ACTIVITY” (SYNPHATEC (SHANGHAI) BIOPHARMACEUTICAL TECHNOLOGY CO., LTD., priority 2022, published 2025).
“Also recorded” adds a separate entry of the source.

What was measured:
APPΔΔICD = experiment: Aβ40 produced from APPΔΔICD co-expressed with BACE1 in HEK 293T cells (ELISA); format: cell-based, human
Procedure: The experiment was performed according to the standard procedure in the ELISA analysis kit of Invitrogen Company. • a) The target protein was expressed in HEK 293T cell line. Cells were subcultured one day before transfection, and transfection was performed when the degree of cell adhesion reached 70%-80%. […]
48 hours after transfection of HEK 293T cells and N2A cells, or 4.5 days after lentivirus infection of neurons, media and lysates were collected. Aβ40 and Aβ42 in the culture medium and cell lysates were detected by an Aβ ELISA kit as indicated in the protocol. […]

[1] = tested on: γ-secretase (PS1, PS2) knockout HEK 293T cells; experiment: PS1 KO, PS2 KO and PS1/2 dKO HEK 293T cell lines: α-CTF and Aβ40; format: cell-based, human
Procedure: • a) A plasmid expressing the target protein in mammalian cells was constructed, and the protein expression promoter is CAG. • b) The target protein was expressed in HEK 293T cell line. Cells were subcultured one day before transfection, and transfection was performed when the degree of cell adhesion reached 70%-80%. The transfection reagent was lipofectamine2000 (ThermoFisher). • c) 4-6 hours post transfection, the medium were replaced with fresh cell culture medium. • d) 36-48 hours post transfection, the cells were lysed (10% 1M tris-HCl (pH=6.8), 4% SDS, 20% glycerol, 0.01% bromophenol blue), and the protein samples were collected and used for Western blot or stored in a −80° C. freezer. • e) Polyacrylamide gel electrophoresis. Before protein loading, the protein was boiled at 98° C. for 10 min, and then centrifuged at 12000 rpm for 10 min. Electrophoresis: 80V for the upper stacking gel; 120V for the lower separating gel. • f) Protein transfer. The filter paper was soaked in the electrophoresis solution before use, and the PVDF membrane was put in methanol for 10s to activate, and the gel after electrophoresis was taken out from the electrophoresis tank, put in the order of filter paper—PVD membrane—gel-filter paper from bottom to top, and they were put into the transfer instrument, with transferring in constant current at 0.1 A for 70 min. • g) Blocking and antibody incubation: the transferred PVDF membrane was placed in 5% BSA/TBST blocking solution, and blocked on a shaker at room temperature for 1 hour. The primary antibody was used to incubate at 4° C. overnight on a shaker (12-16 h); 1×TBST was used to wash three times, once every 10 minutes; the secondary antibody was used to incubate, shaked at room temperature for 1-2 h; 1×TBST was used to wash three times, once every 10 minutes. • h) Imaging by development: development was performed with ECL chemiluminescence hypersensitive chromogenic reagent.
The experiment was performed according to the standard procedure in the ELISA analysis kit of Invitrogen Company. • a) The target protein was expressed in HEK 293T cell line. Cells were subcultured one day before transfection, and transfection was performed when the degree of cell adhesion reached 70%-80%. The transfection reagent was lipofectamine2000 (ThermoFisher). • b) 4-6 hours post transfection, medium were replaced with fresh cell culture medium. • c) 36-48 hours post transfection, the cell culture medium was collected, and then the ELISA process was performed or the cell culture medium was frozen in a −80° C. refrigerator. • d) 50 μl of standard samples and experimental samples were added to each well of the 96-well plate. • e) 50 μl of human-derived Aβ40 or Aβ42 or mouse-derived Aβ40 detection antibody was added to each well of the 96-well plate. • f) The above samples were shaken gently and placed at room temperature for 3 hours. • g) The liquid in the well were removed, and the plate was washed 4 times with 1× wash buffer. • h) 100 μl of the buffer containing 1× anti-Rabbit IgG HRP was added. • i) The plate was shaken gently and placed at room temperature for […]. • j) The liquid in the well were removed, and the well was washed 4 times with 1× wash buffer. • k) 100 μl of Stabilized Chromogen was added to each well, and the plate was placed in the dark for 30 minutes at room temperature. • l) 100 μl of Stop Solution was added to each well. • m) The absorbance at 450 nm was measured with a microplate reader. 2.4 qRT-PCR […]

B1: ApoE CT: C-terminal fragment of ApoE, positions 216-299 of SEQ ID NO: 12; SEQ ID NO: 33 (protein)
chain: ARMEEMGSRTRDRLDEVKEQVAEVRAKLEEQAQQIRLQAEAFQARLKSWFEPLVEDMQRQWAGLVEKVQAAVGTSAAPVPSDNH
With B1 the “Aβ40 produced by APPΔΔICD” value (APPΔΔICD) was “no longer reduces Aβ produced by APPΔΔICD; also recorded: does not affect Aβ40; also recorded: failed to reduce Aβ40”, the “Aβ40 in PS1/2 dKO cells supplemented with PS2” value ([1]; ELISA) was “can reduce Aβ40; also recorded: significantly reduced Aβ40” and the “α-CTF in PS1/2 dKO cells” value ([1]; PS1 and PS2 double knockout HEK 293T cells) was “does not further increase α-CTF; also recorded: did not further increase α-CTF levels”. For the same molecule, the “α-CTF in PS1 KO cells” value ([1]; PS1 single knockout HEK 293T cells) was “still able to increase α-CTF”, the “α-CTF in PS2 KO cells” value ([1]; PS2 single knockout HEK 293T cells) was “still able to increase α-CTF” and the “α-CTF in PS1/2 dKO cells supplemented with PS1 or PS2” value ([1]; rescued expression of PS1 or PS2) was “can significantly increase α-CTF; also recorded: again significantly increased α-CTF”.
